First the molecules themselves.
B1: H237-MB514/MRAL-k0 (antibody, mouse IgG1, kappa)
heavy: QVQLQESGPGLVKPSETLSLTCAVSGHSISHDHAWSWVRQPPGEGLEWIGFISYSGITNYNPSLQGRVTISRDNSKNTLYLQMNSLRAEDTAVYYCARSLARTTAMDYWGEGTLVTVSSAKTTPPSVYPLAPGSAAQTNSMVTLGCLVKGYFPEPVTVTWNSGSLSSGVHTFPAVLQSDLYTLSSSVTVPSSTWPSETVTCNVAHPASSTKVDKKIVPRDCGCKPCICIPAEVEMVFIFPPKPKDVLTITLTPKVTCVVVDISKDDPEVQFSWFVDDVEVHTAQTQPREEQFNSTFRSVSELPIMHQDWLNGKEFKCRVNSAAFPAPIEKTISKTKGRPKAPQVYTIPPPKEQMAKDKVSLTCMITDFFPEDITVEWQWNGQPAENYKNTQPIMDTDGSYFVYSKLNVQKSNWEAGNTFTCSVLHEGLHNHHTEKSLSHSPGK
light: not shown
notes: copies: 2 + 2
B2: H237-MB508/MRAL-k0 (antibody, mouse IgG1, kappa)
heavy: B1 heavy with I229E, P230A, A231Y
light: not shown
notes: copies: 2 + 2
B3: H237-MB517/MRAL-k0 (antibody, mouse IgG1, kappa)
heavy: B1 heavy with I229E, P230A, A231Y, M235W
light: not shown
notes: copies: 2 + 2
B4: H237-MB518/MRAL-k0 (antibody, mouse IgG1, kappa)
heavy: B1 heavy with I229E, P230D, A231Y, M235W
light: not shown
notes: copies: 2 + 2
B5: H237-MB523/MRAL-k0 (antibody, mouse IgG1, kappa)
heavy: B1 heavy with M235W
light: not shown
notes: copies: 2 + 2
B6: H237-MB512/MRAL-k0 (antibody, mouse IgG1, kappa)
heavy: B1 heavy with I229E, P230V, A231Y
light: not shown
notes: copies: 2 + 2
B7: H237-MB520/MRAL-k0 (antibody)
heavy: B1 heavy with I229E, P230T, A231Y, M235W
light: not shown
notes: copies: 2 + 2
B8: H237-MB516/MRAL-k0 (antibody, mouse IgG1, kappa)
heavy: B1 heavy with I229Q, A231N
light: not shown
notes: copies: 2 + 2
B9: H237-MB522/MRAL-k0 (antibody, mouse IgG1, kappa)
heavy: B1 heavy with I229E, M235W
light: not shown
notes: copies: 2 + 2
B10: H237-MB509/MRAL-k0 (antibody, mouse IgG1, kappa)
heavy: B1 heavy with I229E, P230D, A231Y
light: not shown
notes: copies: 2 + 2
B11: H237-MB525/MRAL-k0 (antibody, mouse IgG1, kappa)
heavy: B1 heavy with I229Q, A231N, M235W
light: not shown
notes: copies: 2 + 2
B12: H237-MB511/MRAL-k0 (antibody, mouse IgG1, kappa)
heavy: B1 heavy with I229E, P230T, A231Y
light: not shown
notes: copies: 2 + 2
B13: H237-MB510/MRAL-k0 (antibody, mouse IgG1, kappa)
heavy: B1 heavy with I229E, P230N, A231Y
light: not shown
notes: copies: 2 + 2
B14: H237-MB521/MRAL-k0 (antibody, mouse IgG1, kappa)
heavy: B1 heavy with I229E, P230V, A231Y, M235W
light: not shown
notes: copies: 2 + 2
B15: MB002 (antibody, mouse IgG1, kappa)
heavy: B1 heavy with I229D, P230V, A231P, E234S, M235S
light: not shown
notes: copies: 2 + 2
B16: MB013 (antibody, mouse IgG1, kappa)
heavy: B1 heavy with I229Q, P230V, A231P, E234S, M235S
light: not shown
notes: copies: 2 + 2
B17: MB030 (antibody, mouse IgG1, kappa)
heavy: B1 heavy with I229T, A231P, E234S, M235S
light: not shown
notes: copies: 2 + 2
B18: MB040 (antibody, mouse IgG1, kappa)
heavy: B1 heavy with I229T, P230V, A231F, E234S, M235S
light: not shown
notes: copies: 2 + 2
B19: MB034 (antibody, mouse IgG1, kappa)
heavy: B1 heavy with I229T, P230T, A231P, E234S, M235S
light: not shown
notes: copies: 2 + 2
B20: MB045 (antibody, mouse IgG1, kappa)
heavy: B1 heavy with I229T, P230V, A231L, E234S, M235S
light: not shown
notes: copies: 2 + 2
B21: MB003 (antibody, mouse IgG1, kappa)
heavy: B1 heavy with I229E, P230V, A231P, E234S, M235S
light: not shown
notes: copies: 2 + 2
B22: MB039 (antibody, mouse IgG1, kappa)
heavy: B1 heavy with I229T, P230V, A231E, E234S, M235S
light: not shown
notes: copies: 2 + 2
B23: MB038 (antibody, mouse IgG1, kappa)
heavy: B1 heavy with I229T, P230V, A231D, E234S, M235S
light: not shown
notes: copies: 2 + 2
B24: MB028 (antibody, mouse IgG1, kappa)
heavy: B1 heavy with I229T, P230M, A231P, E234S, M235S
light: not shown
notes: copies: 2 + 2
B25: MB025 (antibody, mouse IgG1, kappa)
heavy: B1 heavy with I229T, P230I, A231P, E234S, M235S
light: not shown
notes: copies: 2 + 2
B26: MB016 (antibody, mouse IgG1, kappa)
heavy: B1 heavy with I229V, P230V, A231P, E234S, M235S
light: not shown
notes: copies: 2 + 2
B27: MB037 (antibody, mouse IgG1, kappa)
heavy: B1 heavy with I229T, P230V, E234S, M235S
light: not shown
notes: copies: 2 + 2
B28: MB027 (antibody, mouse IgG1, kappa)
heavy: B1 heavy with I229T, P230L, A231P, E234S, M235S
light: not shown
notes: copies: 2 + 2
B29: MB020 (antibody, mouse IgG1, kappa)
heavy: B1 heavy with I229T, P230D, A231P, E234S, M235S
light: not shown
notes: copies: 2 + 2
B30: MB021 (antibody, mouse IgG1, kappa)
heavy: B1 heavy with I229T, P230E, A231P, E234S, M235S
light: not shown
notes: copies: 2 + 2
B31: MB019 (antibody, mouse IgG1, kappa)
heavy: B1 heavy with I229T, P230A, A231P, E234S, M235S
light: not shown
notes: copies: 2 + 2
B32: MB031 (antibody, mouse IgG1, kappa)
heavy: B1 heavy with I229T, P230Q, A231P, E234S, M235S
light: not shown
notes: copies: 2 + 2

Where a chain is given by its changes, count along the chain named.

In the first test the target is T1, mouse FcγRII extracellular domain with C-terminal His tag (mouse, UniProt P08101 30-210).
T1 construct: Made on the basis of NCBI NP-034317.1; also called mFcγRII; mFcgRII
T1 sequence: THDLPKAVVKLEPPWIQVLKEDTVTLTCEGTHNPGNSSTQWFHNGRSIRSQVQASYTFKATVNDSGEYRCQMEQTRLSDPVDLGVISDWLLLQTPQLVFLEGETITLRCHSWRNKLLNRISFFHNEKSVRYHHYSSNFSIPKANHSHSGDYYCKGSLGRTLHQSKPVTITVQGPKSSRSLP
The experiment in a line: SPR Biacore T200. As for the experimental part: (§1) Each altered antibody was analyzed for its interaction with each Fcγ receptor prepared above using Biacore T100 (GE Healthcare Japan Corp.), Biacore T200 (GE Healthcare Japan Corp.), Biacore A100, or Biacore 4000. The running buffer used was HBS-EP+ (GE Healthcare Japan Corp.). The assay temperature was set to 25° C. The sensor chips used were chips prepared by immobilizing Protein L (ACTIGEN or BioVision) onto Series S Sensor Chip CM5 (GE Healthcare Japan Corp.) or Series S Sensor Chip CM4 (GE Healthcare Japan Corp.) by the amine coupling method.
(§2) In order to calculate the KD value of each altered antibody for FcγR, kinetic analysis was conducted according to the following method: first, the antibody of interest was captured onto any of these chips and allowed to interact with mFcγR diluted with a running buffer. For the obtained sensorgram, the assay results were globally fit into the 1:1 Langmuir binding model using Biacore Evaluation Software to calculate an association rate constant ka (L/mol/s) and a dissociation rate constant kd (1/s). From these values, the dissociation constant KD (mol/L) was calculated.
On the technique in general: SPR reads the build-up and loss of mass on a sensor chip optically.
For B1, the “relative mFcγRII-binding activity (mIgG1 = 1)” value was found to be 4.5.
In the case of B2, the “relative mFcγRII-binding activity (mIgG1 = 1)” value was 5.5.
Consider B3, for which the “relative mFcγRII-binding activity (mIgG1 = 1)” value turned out to be 1.2.
Regarding B4, the “relative mFcγRII-binding activity (mIgG1 = 1)” value turned out to be 1.2.
Same read-out and setting: under B5 stands 0.5; under B6, 3.5; under B7, 1.8.
For B8, the “relative mFcγRII-binding activity (mIgG1 = 1)” value amounted to 38.6.
With B9, the “relative mFcγRII-binding activity (mIgG1 = 1)” value stood at 1.5.
Regarding B10, the “relative mFcγRII-binding activity (mIgG1 = 1)” value turned out to be 10.7.
Turning to B11, the “relative mFcγRII-binding activity (mIgG1 = 1)” value turned out to be 2.8.
Turning to B12, the “relative mFcγRII-binding activity (mIgG1 = 1)” value stood at 8.3.
Turning to B13, the “relative mFcγRII-binding activity (mIgG1 = 1)” value stood at 6.5.
B14: the “relative mFcγRII-binding activity (mIgG1 = 1)” value amounted to 1.6.

For another test, the target named is T2, mouse FcγRIII extracellular domain with C-terminal His tag (mouse, UniProt P08508 31-215).
T2 construct: Made on the basis of NCBI NP-034318.2; also called mFcγRIII; mFcgRIII
T2 chain: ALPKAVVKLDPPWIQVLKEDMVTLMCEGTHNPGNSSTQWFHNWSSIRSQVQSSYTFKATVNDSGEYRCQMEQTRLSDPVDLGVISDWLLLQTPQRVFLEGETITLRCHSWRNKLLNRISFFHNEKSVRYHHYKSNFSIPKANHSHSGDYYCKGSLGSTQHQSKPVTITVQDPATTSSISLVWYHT
Description: SPR Biacore T200. The procedure:
as §1, §2
As for B1, the “relative mFcγRIII-binding activity (mIgG1 = 1)” value was 0.2.
As to B2, the “relative mFcγRIII-binding activity (mIgG1 = 1)” value stood at 0.4.
The same measure, in the same setting: under B3 stands 0.4; under B4, 0.4; under B5, 0.1.
Take B6: the “relative mFcγRIII-binding activity (mIgG1 = 1)” value turned out to be 0.3.
B7: the “relative mFcγRIII-binding activity (mIgG1 = 1)” value worked out at 1.3.
With B8, the “relative mFcγRIII-binding activity (mIgG1 = 1)” value was 1.6.
With B9, the “relative mFcγRIII-binding activity (mIgG1 = 1)” value came to 0.1.
Take B10: the “relative mFcγRIII-binding activity (mIgG1 = 1)” value is 0.6.
For the molecule B11, the “relative mFcγRIII-binding activity (mIgG1 = 1)” value stood at 0.3.
B12: the “relative mFcγRIII-binding activity (mIgG1 = 1)” value was determined as 0.6.
Still for that read-out and setting: under B13 stands 0.6; under B14, 0.7.

The target in another test is T3, mouse FcγRII (mouse, UniProt P08101 30-210).
T3 construct: also called mFcγRII; mFcgRII
T3 sequence: T1 sequence
Description: SPR Biacore 4000, KD ratio. The procedure: as §1, §2
With B15, the “relative mFcγRII-binding activity (mIgG1 = 1)” value turned out to be 2.72 fold.
With B16, the “relative mFcγRII-binding activity (mIgG1 = 1)” value came to 1.2 fold.
With B17, the “relative mFcγRII-binding activity (mIgG1 = 1)” value was 5.26 fold.
In the case of B18, the “relative mFcγRII-binding activity (mIgG1 = 1)” value was determined as 1.47 fold.
Same read-out and setting: under B19 stands 1.25 fold; under B20, 1.2 fold; under B21, 5.06 fold.
On the same count and under the same terms, under B22 stands 3.27 fold; under B23, 3.15 fold; under B24, 1.83 fold.
Same read-out and setting: under B25 stands 1.19 fold; under B26, 1.15 fold.
Regarding B27, the “relative mFcγRII-binding activity (mIgG1 = 1)” value turned out to be 1.54 fold.
B28: the “relative mFcγRII-binding activity (mIgG1 = 1)” value stood at 1.88 fold.
On to B29, for which the “relative mFcγRII-binding activity (mIgG1 = 1)” value came out at 7.97 fold.
Turning to B30, the “relative mFcγRII-binding activity (mIgG1 = 1)” value stood at 8.52 fold.
As for B31, the “relative mFcγRII-binding activity (mIgG1 = 1)” value stood at 2.7 fold.
The same measure, in the same setting: under B32 stands 1.99 fold.

A further test concerns the target T4, mouse FcγRIII (mouse, UniProt P08508 31-215).
T4 construct: also called mFcγRIII; mFcgRIII
T4 chain: T2 chain
Description: SPR Biacore 4000, KD ratio. As for the experimental part:
as §1, §2
On to B15, for which the “relative mFcγRIII-binding activity (mIgG1 = 1)” value was found to be 1.47 fold.
Still for that read-out and setting: under B16 stands 1.07 fold; under B17, 2.27 fold; under B18, 1.17 fold.
For the molecule B19, the “relative mFcγRIII-binding activity (mIgG1 = 1)” value amounted to 1.12 fold.
As to B20, the “relative mFcγRIII-binding activity (mIgG1 = 1)” value was found to be 0.9 fold.
For B21, the “relative mFcγRIII-binding activity (mIgG1 = 1)” value came out at 1.51 fold.
Take B22: the “relative mFcγRIII-binding activity (mIgG1 = 1)” value came to 1.29 fold.
For the molecule B23, the “relative mFcγRIII-binding activity (mIgG1 = 1)” value is 1.37 fold.
Consider B24, for which the “relative mFcγRIII-binding activity (mIgG1 = 1)” value came to 1.42 fold.
On the same count and under the same terms, under B25 stands 1.06 fold; under B26, 1 fold; under B27, 1.22 fold.
On to B28, for which the “relative mFcγRIII-binding activity (mIgG1 = 1)” value is 1.55 fold.
On to B29, for which the “relative mFcγRIII-binding activity (mIgG1 = 1)” value turned out to be 2.84 fold.
For B30, the “relative mFcγRIII-binding activity (mIgG1 = 1)” value is 3.58 fold.
For the molecule B31, the “relative mFcγRIII-binding activity (mIgG1 = 1)” value came to 1.44 fold.
On the same count and under the same terms, under B32 stands 1.48 fold.

Values taken from patent publication US20150203577A1 (Chugai, published 2015).
